Test results taken from publication PMC7010799.

Assays:
[1] = target: human NatA complex (hNAA15/hNAA10) (human) (UniProt Q9BXJ9)
[2] = target: human NatA complex (hNAA15/hNAA10) (human) (UniProt Q9BXJ9); assay: ITC; MicroCal iTC200, 20 °C; 25 mM HEPES pH 7.0, 200 mM NaCl, 1 mM DTT; 15 μM hNatA or hNatE in the cell, 150 μM MBP-HYPK in the syringe

Chain of human NatA complex (hNAA15/hNAA10) (human) (Q9BXJ9 whole entry, chain 1 of 2): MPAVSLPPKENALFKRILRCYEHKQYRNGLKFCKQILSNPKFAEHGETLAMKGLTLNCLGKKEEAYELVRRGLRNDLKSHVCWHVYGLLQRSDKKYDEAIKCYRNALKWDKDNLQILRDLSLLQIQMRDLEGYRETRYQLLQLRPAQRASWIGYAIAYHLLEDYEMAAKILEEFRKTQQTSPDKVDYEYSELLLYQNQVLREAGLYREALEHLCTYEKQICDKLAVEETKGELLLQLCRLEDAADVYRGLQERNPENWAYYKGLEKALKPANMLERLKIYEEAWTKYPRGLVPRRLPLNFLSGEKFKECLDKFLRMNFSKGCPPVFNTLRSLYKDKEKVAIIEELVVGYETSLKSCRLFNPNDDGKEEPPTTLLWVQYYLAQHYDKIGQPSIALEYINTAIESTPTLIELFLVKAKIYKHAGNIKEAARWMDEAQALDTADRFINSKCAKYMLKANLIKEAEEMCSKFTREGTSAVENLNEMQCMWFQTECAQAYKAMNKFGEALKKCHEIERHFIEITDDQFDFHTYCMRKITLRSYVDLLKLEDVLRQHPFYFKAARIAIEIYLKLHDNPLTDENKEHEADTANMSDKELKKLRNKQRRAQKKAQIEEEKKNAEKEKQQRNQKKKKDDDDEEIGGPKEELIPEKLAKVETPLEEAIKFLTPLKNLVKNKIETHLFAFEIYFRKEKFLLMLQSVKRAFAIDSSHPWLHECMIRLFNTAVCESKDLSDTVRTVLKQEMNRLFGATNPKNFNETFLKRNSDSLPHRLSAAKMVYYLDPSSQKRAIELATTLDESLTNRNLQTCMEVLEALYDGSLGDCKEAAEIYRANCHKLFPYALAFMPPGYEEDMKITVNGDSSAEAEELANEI
Chain of human NatA complex (hNAA15/hNAA10) (human) (P41227 whole entry, chain 2 of 2, further chain): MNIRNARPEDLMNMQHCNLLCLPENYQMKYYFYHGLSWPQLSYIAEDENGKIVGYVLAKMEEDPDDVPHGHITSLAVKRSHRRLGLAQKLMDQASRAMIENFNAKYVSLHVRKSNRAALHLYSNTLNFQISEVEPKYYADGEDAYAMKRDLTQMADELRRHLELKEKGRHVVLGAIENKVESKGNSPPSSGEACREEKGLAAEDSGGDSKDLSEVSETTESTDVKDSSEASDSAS
Chain of maltose-binding protein (MBP) tagged HYPK (from UniProt Q9NX55 1-121) (natural protein; other documents disagree on this pair) (Q9NX55 whole entry): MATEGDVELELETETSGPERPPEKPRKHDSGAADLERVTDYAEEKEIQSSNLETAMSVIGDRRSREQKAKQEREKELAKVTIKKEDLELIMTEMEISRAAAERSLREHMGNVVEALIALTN
Chain of maltose-binding protein (MBP) tagged HYPK (from UniProt Q9NX55 1-121) (natural protein) (Q9NX55 whole entry): as above

Substance	inhibition of hNatA (100 nM) acetylation activity against SASE peptide, MBP-HYPK titrated [1]	Kd [2]
maltose-binding protein (MBP) tagged HYPK (from UniProt Q9NX55 1-121) (natural protein)	90%	–
maltose-binding protein (MBP) tagged HYPK (from UniProt Q9NX55 1-121) (natural protein; other documents disagree on this pair)	–	29.9 nM
